Key:
[1] = Blood and tumor activity after P53-BiDE(noHIS) and 177Lu-Bn-DOTA administration (FIG. 6A, 6D, 6E); format: in vivo, mice; settings: mouse, in vivo
Procedure: FIG. 6A to FIG. 6E depict pharmacokinetics of exemplary SADA-BiDE constructs in vivo. FIG. 6A depicts activity over time after P53-BiDE(noHIS) and Bn-DOTA administration. Each line represents one group, with three mice per group. Triangles denote a group that received P53-BiDE(noHIS) followed by clearing agent (CA) 72 hours later. Squares denote a group that received P53-BiDE(noHIS) without any clearing agent before ^177Lu-Bn-DOTA administration. Circles denote a group that only received ^177Lu-Bn-DOTA but not any SADA-BiDE. Dashed lines correspond to the measured blood activity, while solid lines correspond to the activity measured in the tumor. […] FIG. 6B depicts blood activity of radiolabeled 131I-SADA-BiDE in tumor-free mice. Activity measurements were normalized to the initial measurement for each group. Each line represents one group, with 4-5 mice per group. (+) symbols denote P53-BiDE, (X) symbols denote P63-BiDE and circles denote P73-BiDE. FIG. 6C depicts blood activity in tumor bearing mice treated with either IgG-BiDE (Cheal, S. M. et al. (2014) Mol Cancer Ther) or SADA-BiDE and then injected with ^177Lu-Bn-DOTA. Each line represents one group, with 3-5 mice per group. Circles denote a group that received IgG-BiDE (Cheal, S. M. et al. (2014) Mol Cancer Ther) followed by clearing agent 48 hrs later. Squares denote a group that received P53-BiDE. Diamonds denote a group that received P63-BiDE. Hexagons denote a group that received P73-BiDE. No SADA-BiDE treated mice received any clearing agent. A representative anti-tumor IgG and ^177Lu-Bn-DOTA alone clearance curves were added as a reference. (+) symbols with a dotted line denote the ^124I-labeled anti-GD2 IgG, and (x) symbols with a dotted line denote ^177Lu-Bn-DOTA alone. […]
Importantly, even though, as described in the previous examples, P53-BIDE(NOHIS), P53-BiDE, P63-BiDE and P73-BiDE is rapidly cleared from the serum, total tumor uptake of was not affected. With both 24 hours and 72 hours between P53-BIDE(NOHIS) and ^177Lu-Bn-DOTA injections, significant activity (˜15% ID/g) was measured at the tumor site (FIG. 6D) […]

tumors = format: in vivo, mice
Procedure: FIG. 8A and FIG. 8B depict tumor responses after treatment with a SADA-BiDE construct P53-BIDE(NOHIS) in vivo. FIG. 8A depicts a graph showing the change in tumor volume after administration of 1 (circles) or 4 (squares) doses of P53-BiDE. As a reference other mice were also treated with IgG-BiDE (Cheal, S. M. et al. (2014) Mol Cancer Ther) and clearing agent (triangles). FIG. 8B provides images of an exemplary mouse treated with a single dose of P53-BIDE(NOHIS) from the experimental data shown in FIG. 8A. Images are shown of the mouse on days 1, 8 and 15 with a box around the site of the tumor.
In mice with significant tumor burden (>500 mm^3 tumor volumes) a single 250 μg (1.25 nmol) dose of P53-BIDE(NOHIS) was administered followed 24 hour later by administration of 2mCi of ^177Lu-Bn-DOTA.

[2] = tested on: TIB214, an IL15 sensitive cell line; assay: SADA-Cytokine dependent proliferation; format: cell-based
Excerpt: (§1) […] to FIG. 11D depict in vitro activity of P53-Cytokine, P63-Cytokine and P73-Cytokine SADA-Cytokines. FIG. 11A depicts a graph showing SADA-Cytokine dependent proliferation. The dose dependent proliferative response of TIB214 cells to each of P53-Cytokine (circles), P63-Cytokine (squares) and P73-Cytokine (triangles) is shown. FIG. 11B depicts a graph showing NK Cell cytotoxicity improvement from SADA-Cytokine stimulation. Bar graph summarizes peak cytotoxicity improvement from exposure of human NK cells to each SADA-Cytokine for 3 days. Cytotoxicity was assessed over a 4 hr period using a GD2(+) cell line that is sensitive to NK mediated killing and an anti-GD2 IgG (Ahmed, M. et al. (2015) OncoImmunology). Control (black bar), P53-Cytokine (medium gray bar), P63-Cytokine (dark gray bar) and P73-Cytokine (light gray bar). FIG. 11C depicts a graph showing T Cell cytotoxicity improvement from SADA-Cytokine stimulation. Bar graph summarizes peak cytotoxicity improvement from exposure of human T cells to each SADA-Cytokine for 3 days. Cytotoxicity was assessed over a 4 hr period using a GD2(+) cell line and a T-cell engaging anti-GD2 IgG-scFv bispecific (Xu, H. et al. (2015) Cancer immunology research). Control (black bar), P53-Cytokine (medium gray bar), P63-Cytokine (dark gray bar) and P73-Cytokine (light gray bar). FIG. 11D depicts a graph showing tumor growth in DKO mice with GD2(+) tumors implanted subcutaneously. Each mouse was treated with PBMCs (gray triangles) and a low dose of an anti-tumor IgG-scFv (Xu, H. et al. (2015) Cancer immunology research) and additional cytokines. Untreated tumors grew out very quickly (black lines). Tumors treated with the IgG-scFv and an Fc-Cytokine (Liu et al. 2016 JBC, http://www.jbc.org/content/291/46/23869) with a mutation to improve binding (light gray line) shrunk tumors slower than mice treated with the IgG-scFv and SADA-Cytokine (dark gray line).
(§2) This example documents the in vitro activity of exemplary SADA-cytokine multimers. […] Additionally, each complex could prime effector immune cells to kill more strongly. […]

Human NK cells = assay: NK cell cytotoxicity improvement from SADA-Cytokine stimulation; format: cell-based; settings: 1 nM for three days; cytotoxicity over a 4 hr period
Excerpt: as §1, §2

human T cells = assay: T cell cytotoxicity improvement from SADA-Cytokine stimulation; format: cell-based; settings: incubated three days; cytotoxicity over a 4 hr period, GD2(+) cell line
Excerpt: as §1, §2

Row | Molecule | activity measured at the tumor site [1] [% ID/g] | clearance from blood without clearing agent [1] | retention at the target site [1] | clinical or histologic toxicity (tumors; mouse, in vivo) | tumor response (tumors; tumor volumes >500 mm^3, single 250 μg (1.25 nmol) dose, 2mCi 177Lu-Bn-DOTA 24 hour later, no CA) | proliferation of TIB214 relative to untreated control cells [2] | NK cell cytotoxic response against a GD2(+) neuroblastoma cell line (Human NK cells) | IgG-scFv dependent killing of tumor cells by T cells (human T cells)
1 | P53-BiDE(noHIS): hu3F8-scFv, huC825-scFv, huP53-tet, GS linker, IgG3 spacer, lacks terminal HIS tag; SEQ ID NO: 17 (protein) EIVMTQTPATLSVSAGERVTITCKASQSVSNDVTWYQQKPGQAPRLLIYSASNRYSGVPARFSGSGYGTEFTFTISSVQSEDFAVYFCQQDYSSFGCGTKLEIKRGGGGSGGGGSGGGGSQVQLVESGPGVVQPGRSLRISCAVSGFSVTNYGVHWVRQPPGKCLEWLGVIWAGGITNYNSAFMSRLTISKDNSKNTVYLQMNSLRAEDTAMYYCASRGGHYGYALDYWGQGTLVTVSSGGGGSGGGGSGGGGSGGGGSHVQLVESGGGLVQPGGSLRLSCAASGFSLTDYGVHWVRQAPGKGLEWLGVIWSGGGTAYNTALISRFTISRDNSKNTLYLQMNSLRAEDTAVYYCARRGSYPYNYFDAWGCGTLVTVSSGGGGSGGGGSGGGGSQAVVTQEPSLTVSPGGTVTLTCGSSTGAVTASNYANWVQQKPGQCPRGLIGGHNNRPPGVPARFSGSLLGGKAALTLLGAQPEDEAEYYCALWYSDHWVIGGGTKLTVLGTPLGDTTHTSGKPLDGEYFTLQIRGRERFEMFRELNEALELKDAQAGKEPGGSGGA | ~15 | almost completely cleared | stably retained at the target site | did not induce any clinical or histologic toxicity | completely ablate tumors in all four mice treated | – | – | –
2 | P63-Cytokine: IL15Rα, huP63-tet, IgG3 spacer; associates non-covalently with soluble IL15; SEQ ID NO: 59 (protein) ITCPPPMSVEHADIWVKSYSLYSRERYICNSGFKRKAGTSSLTECVLNKATNVAHWTTPSLKCIRTPLGDTTHTSGRSPDDELLYLPVRGRETYEMLLKIKESLELMQYLPQHTIETYRQQQQQQHQHLLQKQGGSGGAPHHHHHH | – | – | – | – | – | robust proliferation | increased antibody-independent cytotoxic response | strongly increased IgG-scFv dependent killing
3 | P53-Cytokine: IL15Rα, huP53-tet, IgG3 spacer; associates non-covalently with soluble IL15; SEQ ID NO: 57 (protein) ITCPPPMSVEHADIWVKSYSLYSRERYICNSGFKRKAGTSSLTECVLNKATNVAHWTTPSLKCIRTPLGDTTHTSGKPLDGEYFTLQIRGRERFEMFRELNEALELKDAQAGKEPGGSGGAPHHHHHH | – | – | – | – | – | robust proliferation | increased antibody-independent cytotoxic response | strongly increased IgG-scFv dependent killing
4 | P73-Cytokine: IL15Rα, huP73-tet, IgG3 spacer; associates non-covalently with soluble IL15; SEQ ID NO: 61 (protein) ITCPPPMSVEHADIWVKSYSLYSRERYICNSGFKRKAGTSSLTECVLNKATNVAHWTTPSLKCIRTPLGDTTHTSGRHGDEDTYYLQVRGRENFEILMKLKESLELMELVPQPLVDSYRQQQQLLQRPGGSGGAPHHHHHH | – | – | – | – | – | robust proliferation | increased antibody-independent cytotoxic response | strongly increased IgG-scFv dependent killing

Reference: US11583588B2, “Modular self assembly disassembly (SADA) technologies” (MEMORIAL SLOAN KETTERING CANCER CENTER, priority 2017, dated 2023)
